In publication PMC4215875:

Assays:
FcRn = FcRn (UniProt P55899); assay: SPR
alpha-HER2 CH1 ADC = alpha-HER2 CH1 ADC (UniProt P01857); settings: pH 7.3; not stated (pH 7.3)
[1] = biological target: alpha-HER2 untagged (trastuzumab) (UniProt P01857); settings: pH 7.3; not stated (pH 7.3)
alpha-HER2 LC ADC = alpha-HER2 LC ADC (UniProt P01857); settings: pH 7.3; not stated (pH 7.3)
[2] = biological target: alpha-HER2-DM1 ADC (in-house T-DM1 analogue) none in sequence; heterogeneous lysine conjugation with SMCC-DM1 (DAR 3.4) (UniProt P01857); settings: pH 7.3; not stated (pH 7.3)
[3] = biological target: alpha-HER2 CT tag (trastuzumab with aldehyde Tag G) (UniProt P01857); settings: pH 7.3; not stated (pH 7.3)
[4] = biological target: alpha-HER2 LC tag (trastuzumab with light-chain aldehyde tag); settings: pH 7.3; not stated (pH 7.3)
alpha-HER2 CT ADC = alpha-HER2 CT ADC (UniProt P01857); settings: pH 7.3; not stated (pH 7.3)
[5] = biological target: alpha-HER2 CH1 tag (trastuzumab with aldehyde Tag C) (UniProt P01857); settings: pH 7.3; not stated (pH 7.3)

| Substance | % Bound after 5 s at pH 7.3 (FcRn) | Kd (FcRn) | other results |
| --- | --- | --- | --- |
| α-HER2 LC tag (trastuzumab with the aldehyde tag in the light chain) (antibody) | 11% | 4.7 nM | – |
| α-HER2-DM1 ADC (trastuzumab conjugated through conventional lysine chemistry to SMCC-DM1) (antibody) | 14.9% | 5 nM | – |
| α-HER2 CT ADC (CT-tagged trastuzumab conjugated to HIPS-Glu-PEG2-maytansine) (antibody) | 12% | 4.4 nM | – |
| α-HER2 LC ADC (LC-tagged trastuzumab conjugated to HIPS-Glu-PEG2-maytansine) (antibody) | 10.9% | 4.8 nM | – |
| α-HER2 CH1 ADC (CH1-tagged trastuzumab conjugated to HIPS-Glu-PEG2-maytansine) (antibody) | – | 4.8 nM | – |
| α-HER2 CT tag (trastuzumab with the aldehyde tag at the heavy chain C-terminus, Tag G) (antibody) | 9.9% | 5.8 nM | – |
| α-HER2 CH1 tag (trastuzumab with the aldehyde tag in the CH1 domain, Tag C) (antibody) | 9.9% | 5.2 nM | – |
| Neonatal Fc receptor (FcRn) | – | – | % Bound after 5 s (alpha-HER2 CH1 ADC): 9.5 % bound; % Bound after 5 s [1]: 8.6 % bound; % Bound after 5 s (alpha-HER2 LC ADC): 10.9 % bound; % Bound after 5 s [2]: 14.9 % bound; % Bound after 5 s [3]: 9.9 % bound; % Bound after 5 s [4]: 11 % bound; % Bound after 5 s (alpha-HER2 CT ADC): 12 % bound; % Bound after 5 s [5]: 9.9 % bound |
| α-HER2 untagged (trastuzumab) (antibody) | – | 5.2 nM | – |
